Reference: PMC9352680, “A comprehensive thermodynamic model for RNA binding by the Saccharomyces cerevisiae Pumilio protein PUF4”

Each binder was assayed against T1, PUF4 RNA-binding domain (Saccharomyces cerevisiae, UniProt P25339 537-888) (assay: Mg; RNA-MaP; 20 mM Na-HEPES pH 7.4, 30 mM KOAc, 0.75 mM MgCl2, 0.1% Tween-20, 5% glycerol, 0.1 mg/mL BSA, 2 mM DTT; 25 C; 0.0125-409.6 nM protein). Details: tags: N-His6-TEV cleaved; C-SNAP kept, Cy3B-labelled; label: tethered on chip by stalled RNA polymerase.
T1 sequence: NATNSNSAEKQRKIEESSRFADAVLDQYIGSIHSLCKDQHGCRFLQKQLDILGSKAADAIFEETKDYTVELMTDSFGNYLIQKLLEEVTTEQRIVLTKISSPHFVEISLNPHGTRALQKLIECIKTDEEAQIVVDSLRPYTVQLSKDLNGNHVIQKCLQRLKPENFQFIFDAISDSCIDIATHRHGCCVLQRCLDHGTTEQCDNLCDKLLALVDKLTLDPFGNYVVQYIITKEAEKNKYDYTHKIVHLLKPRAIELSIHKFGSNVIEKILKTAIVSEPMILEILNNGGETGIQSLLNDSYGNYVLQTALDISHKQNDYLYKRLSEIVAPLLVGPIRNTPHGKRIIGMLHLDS

Binder	Kd [nM]
UCUCUUUGUAAUAUGAUCUCUU (ssRNA) [Ib_S1_P5E.1_K5.1_C5.1_H5.1_A5.1_[T5A]_F5.1_[T9G]_T5.1]	22.3
Id_ii_S2_P5E.3_K5.2_C5.2_H5.2_A5.1_F5.1_T5.2_[T11C]_[A12T] (ssRNA) RNA: UUUGAUUAAUAUGAUAUCGUUCUUUCUCUUAUAUUAUUACUUUCUUUCUCGAUAUCAUAUUAAUCUUU	77.9
Id_ii_S2_P5E.4_K5.3_C5.2_[C-2T]_[T-1A]_H5.3_A5.1_F5.1_T5.2_[T11A]_[A12T] (ssRNA) RNA: UUUGAUUAAUAUGAUAUCGUUCUUUCUUAACACUUAUUAAUUUCUUUCUCGAUAUCAUAUUAAUCUUU	> 2300
Id_ii_S2_P5E.4_K5.3_C5.2_[C-2G]_[T-1C]_H5.3_A5.1_F5.1_T5.2_[T11C]_[A12T] (ssRNA) RNA: UUUGAUUAAUAUGAUAUCGUUCUUUCUGCACACUUAUUACUUUCUUUCUCGAUAUCAUAUUAAUCUUU	409
Id_ii_S2_P5E.4_K5.3_C5.2_[C-2T]_H5.3_A5.1_F5.1_T5.2_[T11A]_[A12C] (ssRNA) RNA: UUUGAUUAAUAUGAUAUCGUUCUUUCUUUACACUUAUUAACUUCUUUCUCGAUAUCAUAUUAAUCUUU	> 2300
Id_ii_S2_P5E.4_K5.3_C5.2_[C-2T]_[T-1A]_H5.3_A5.1_F5.1_T5.2_[T11C] (ssRNA) RNA: UUUGAUUAAUAUGAUAUCGUUCUUUCUUAACACUUAUUACAUUCUUUCUCGAUAUCAUAUUAAUCUUU	> 2300
Id_ii_S2_P5E.4_K5.3_C5.2_[C-2T]_H5.3_A5.1_F5.1_T5.2_[T11A]_[A12T] (ssRNA) RNA: UUUGAUUAAUAUGAUAUCGUUCUUUCUUUACACUUAUUAAUUUCUUUCUCGAUAUCAUAUUAAUCUUU	> 2300
Id_ii_S2_P5E.4_K5.3_C5.2_[C-2T]_H5.3_A5.1_F5.1_T5.2_[T11C]_[A12T] (ssRNA) RNA: UUUGAUUAAUAUGAUAUCGUUCUUUCUUUACACUUAUUACUUUCUUUCUCGAUAUCAUAUUAAUCUUU	1530
Id_ii_S2_P5E.3_K5.2_C5.2_H5.2_A5.1_F5.1_T5.2_[T11A]_[A12T] (ssRNA) RNA: UUUGAUUAAUAUGAUAUCGUUCUUUCUCUUAUAUUAUUAAUUUCUUUCUCGAUAUCAUAUUAAUCUUU	234
Id_ii_S2_P5E.4_K5.3_C5.2_[C-2T]_[T-1C]_H5.3_A5.1_F5.1_T5.2_[T11C]_[A12T] (ssRNA) RNA: UUUGAUUAAUAUGAUAUCGUUCUUUCUUCACACUUAUUACUUUCUUUCUCGAUAUCAUAUUAAUCUUU	> 2300
Id_ii_S2_P5E.4_K5.3_C5.2_[C-2T]_[T-1A]_H5.3_A5.1_F5.1_T5.2_[A12C] (ssRNA) RNA: UUUGAUUAAUAUGAUAUCGUUCUUUCUUAACACUUAUUAUCUUCUUUCUCGAUAUCAUAUUAAUCUUU	> 2300
Id_ii_S2_P5E.4_K5.3_C5.2_[C-2G]_H5.3_A5.1_F5.1_T5.2_[A12T] (ssRNA) RNA: UUUGAUUAAUAUGAUAUCGUUCUUUCUGUACACUUAUUAUUUUCUUUCUCGAUAUCAUAUUAAUCUUU	1.25
Id_ii_S2_P5E.4_K5.3_C5.2_[C-2G]_[T-1C]_H5.3_A5.1_F5.1_T5.2_[A12T] (ssRNA) RNA: UUUGAUUAAUAUGAUAUCGUUCUUUCUGCACACUUAUUAUUUUCUUUCUCGAUAUCAUAUUAAUCUUU	341
Id_ii_S2_P5E.4_K5.3_C5.2_[C-2T]_H5.3_A5.1_F5.1_T5.2_[T11G]_[A12C] (ssRNA) RNA: UUUGAUUAAUAUGAUAUCGUUCUUUCUUUACACUUAUUAGCUUCUUUCUCGAUAUCAUAUUAAUCUUU	> 2300
Id_ii_S2_P5E.3_K5.2_C5.2_H5.2_A5.1_F5.1_T5.2_[A12C] (ssRNA) RNA: UUUGAUUAAUAUGAUAUCGUUCUUUCUCUUAUAUUAUUAUCUUCUUUCUCGAUAUCAUAUUAAUCUUU	65.7
Id_ii_S2_P5E.4_K5.3_C5.2_[C-2T]_[T-1C]_H5.3_A5.1_F5.1_T5.2_[A12C] (ssRNA) RNA: UUUGAUUAAUAUGAUAUCGUUCUUUCUUCACACUUAUUAUCUUCUUUCUCGAUAUCAUAUUAAUCUUU	> 2300
Id_ii_S2_P5E.4_K5.3_C5.2_[C-2T]_[T-1A]_H5.3_A5.1_F5.1_T5.2_[T11C]_[A12G] (ssRNA) RNA: UUUGAUUAAUAUGAUAUCGUUCUUUCUUAACACUUAUUACGUUCUUUCUCGAUAUCAUAUUAAUCUUU	> 2300
Id_ii_S2_P5E.4_K5.3_C5.2_[C-2G]_[T-1C]_H5.3_A5.1_F5.1_T5.2_[T11A] (ssRNA) RNA: UUUGAUUAAUAUGAUAUCGUUCUUUCUGCACACUUAUUAAAUUCUUUCUCGAUAUCAUAUUAAUCUUU	549
Id_ii_S2_P5E.4_K5.3_C5.2_[C-2G]_H5.3_A5.1_F5.1_T5.2_[T11A] (ssRNA) RNA: UUUGAUUAAUAUGAUAUCGUUCUUUCUGUACACUUAUUAAAUUCUUUCUCGAUAUCAUAUUAAUCUUU	1.43
Id_ii_S2_P5E.4_K5.3_C5.2_[C-2G]_[T-1C]_H5.3_A5.1_F5.1_T5.2_[T11A]_[A12T] (ssRNA) RNA: UUUGAUUAAUAUGAUAUCGUUCUUUCUGCACACUUAUUAAUUUCUUUCUCGAUAUCAUAUUAAUCUUU	408
Id_ii_S2_P5E.3_K5.2_C5.2_H5.2_A5.1_F5.1_T5.2_[T11A]_[A12C] (ssRNA) RNA: UUUGAUUAAUAUGAUAUCGUUCUUUCUCUUAUAUUAUUAACUUCUUUCUCGAUAUCAUAUUAAUCUUU	230
Id_ii_S2_P5E.3_K5.2_C5.2_H5.2_A5.1_F5.1_T5.2_[A12T] (ssRNA) RNA: UUUGAUUAAUAUGAUAUCGUUCUUUCUCUUAUAUUAUUAUUUUCUUUCUCGAUAUCAUAUUAAUCUUU	110
